# Experimental data published in patent US6767991.
# Columns and labels:
# Experiment in all cases: cell-based or functional assay
# [1] = target: recombinant NS3 protease with the NS4A peptide cofactor … (molar ratio enzyme:cofactor 1:100) (hepatitis C virus genotype 1b)
# [2] = target: human leukocyte elastase (human) (UniProt P08246)
# [3] = target: recombinant HCV NS3 protease type 1b (amino acid 1027 to 1206) (hepatitis C virus genotype 1b)
# [4] = target: bovine pancreatic α-chymotrypsin (bovine) (UniProt P00766)
# [5] = target: porcine pancreatic elastase (porcine) (UniProt P00772)
# Sequence of porcine pancreatic elastase (porcine) (P00772 27-266): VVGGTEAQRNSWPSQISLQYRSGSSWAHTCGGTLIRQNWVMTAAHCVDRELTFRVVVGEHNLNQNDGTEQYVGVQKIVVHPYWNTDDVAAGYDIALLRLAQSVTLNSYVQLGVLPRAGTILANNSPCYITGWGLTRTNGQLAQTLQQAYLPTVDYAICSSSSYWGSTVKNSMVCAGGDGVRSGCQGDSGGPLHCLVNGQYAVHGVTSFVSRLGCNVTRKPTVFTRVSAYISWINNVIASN
# [6] = target: human liver cathepsin B (human) (UniProt P07858)
# Sequence of human leukocyte elastase (human) (P08246 30-247 limits assumed): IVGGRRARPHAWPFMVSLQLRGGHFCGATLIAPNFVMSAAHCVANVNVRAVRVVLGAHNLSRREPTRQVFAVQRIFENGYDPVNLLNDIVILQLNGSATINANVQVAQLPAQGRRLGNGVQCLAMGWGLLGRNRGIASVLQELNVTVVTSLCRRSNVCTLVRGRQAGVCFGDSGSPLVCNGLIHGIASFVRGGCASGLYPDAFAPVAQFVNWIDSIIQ
Substance,IC50 [1] [µM],other results
Compound 235 (Table 2): Boc-Chg-Chg-Pro(1-NpCH2O)-Acca (peptide),12,–
Compound 227 (Table 2): Ac-Chg-Val-Pro(1-NpCH2O)-Acca (peptide),–,HLE [2]: > 600 µM
"Compound 506 (Table 5): Ac-Chg-Chg-Pro(1-NpCH2O)-P1(R14 Et; 1S, 2S) (peptide)",–,HLE [2]: > 400 µM
Compound 206 (Table 2): Ac-Asp-Asp-Ile-Val-Pro(p-tolyl-methoxy)-Nva (peptide),–,IC50 [3]: 6.4 µM
Compound 110 (Table 1): Ac-Asp-Asp-Chg-Val-Pro-Cys (peptide),–,IC50 [3]: 24 µM
Compound 205 (Table 2): Ac-Asp-Asp-Ile-Val-Pro(m-tolyl-methoxy)-Nva (peptide),–,IC50 [3]: 6.7 µM
Compound 252 (Table 2): Ac-Chg-Val-Pro(1-NpCH2O)-Nva (peptide),20,–
"Compound 515 (Table 5): Ac-Chg-Val-Pro(1-NpCH2O)-P1(R14 Bz; 1R, 2?) (peptide)",9.2,–
"Compound 519 (Table 5): Ac-Chg-Val-Pro(1-NpCH2O)-P1(R14 Pr; 1R, 2?) (peptide)",3.45,–
Compound 129 (Table 1): Ac-Asp-Tbg-Ile-Val-Pro-Nva (peptide),–,IC50 [3]: 270 µM
Compound 234 (Table 2): Ac-Chg-Chg-Pro(O-Bn)-Acca (peptide),41,–
"Compound 603 (Table 6): P4 Chg, P3 Val, R13 1-NpCH2O, R14 CH═CH2 (peptide)",0.36,–
Compound 210 (Table 2): Ac-Asp-D-Glu-Chg-Val-Pro(O-Bn)-Cys (peptide),0.033,Other [4]: > 300 µM; PPE [5]: > 300 µM; HLE [2]: > 300 µM
Compound 239 (Table 2): Ac-Chg-Val-Pro((2Br-Ph)O)-Acca (peptide),27,–
"Compound 503 (Table 5): Ac-Chg-Chg-Pro(1-NpCH2O)-P1(R14 Et; 1R, 2?) (peptide)",1.35,HLE [2]: 250 µM
"Compound 602 (Table 6): P4 Chg, P3 Chg, R13 1-NpCH2O, R14 CH═CH2 (peptide)",0.13,–
"Compound 520 (Table 5): Ac-Chg-Val-Pro(1-NpCH2O)-P1(R14 Pr; 1R, 2?) (peptide)",22.5,–
"Compound 501 (Table 5): Ac-Chg-Val-Pro(OBn)-P1(R14 Et; 1R, 2R) (peptide)",17.1,–
"Compound 514 (Table 5): Ac-Chg-Val-Pro(1-NpCH2O)-P1(R14 Et; 1S, 2S) (peptide)",27.5,–
Compound 115 (Table 1): Ac-Asp-Asp-Ile-Val-Abu-Cys (peptide),–,IC50 [3]: 58 µM
Compound 123 (Table 1): Ac-Asp-Asp-Ile-Val-Pro-Nva (peptide),220,PPE [5]: > 300 µM; HLE [2]: > 300 µM
Compound 212 (Table 2): Ac-Asp-D-Glu-Ile-Val-Pro(O-Bn)-Acca (peptide),0.21,PPE [5]: > 300 µM; HLE [2]: > 300 µM
Compound 240 (Table 2): Ac-Chg-Val-Pro((3Br-Ph)O)-Acca (peptide),42,–
Compound 114 (Table 1): Ac-Asp-Asp-Ile-Chg-Pro-Cys (peptide),–,IC50 [3]: 50 µM
"Compound 504 (Table 5): Ac-Chg-Chg-Pro(1-NpCH2O)-P1(R14 Et; 1R, 2?) (peptide)",9.53,–

Substance,IC50 [1] [µM],other results
"Compound 502 (Table 5): Ac-Chg-Val-Pro(OBn)-P1(R14 Et; 1R, 2?) (peptide)",12.6,–
Compound 268 (Table 2): Ac-Chg-Val-Pro((3Br-Ph)CH2O)-Acca (peptide),24,–
"Compound 507 (Table 5): Ac-Chg-Val-Pro(1-NpCH2O)-P1(R14 Me; 1R, 2?) (peptide)",5.1,–
"Compound 272 (Table 2): Ac-Chg-Val-Pro((3,5-Br2-Ph)CH2O)-Acca (peptide)",27,–
Compound 231 (Table 2): Ac-Chg-Chg-Pro(1-NpCH2O)-Acca (peptide),2.6,–
Compound 203 (Table 2): Ac-Asp-D-Glu-Ile-Val-Pro(O-Bn)-Nva (peptide),0.6,Other [6]: > 300 µM; PPE [5]: > 300 µM; HLE [2]: > 300 µM
"Compound 516 (Table 5): Ac-Chg-Val-Pro(1-NpCH2O)-P1(R14 Bz; 1R, 2?) (peptide)",46.5,–
"Compound 511 (Table 5): Ac-Chg-Val-Pro(1-NpCH2O)-P1(R14 CH2OCH2Ph; 1R, 2?) (peptide)",32.5,–
"Compound 510 (Table 5): Ac-Chg-Val-Pro(1-NpCH2O)-P1(R14 CH2OCH2Ph; 1R, 2?) (peptide)",15.5,–
Compound 242 (Table 2): Ac-Chg-Val-Pro((4Br-Ph)S)-Acca (peptide),36,–
Compound 204 (Table 2): Ac-Asp-Asp-Ile-Val-Pro(o-tolyl-methoxy)-Nva (peptide),–,IC50 [3]: 9.4 µM
"Compound 521 (Table 5): Ac-Asp-D-Val-Chg-Val-Pro(1-NpCH2O)-P1(R14 Et; 1R, 2R) (peptide)",0.024,HLE [2]: > 300 µM
"Compound 508 (Table 5): Ac-Chg-Val-Pro(1-NpCH2O)-P1(R14 CHMe2; 1R, 2?) (peptide)",4.15,–
"Compound 513 (Table 5): Ac-Chg-Val-Pro(1-NpCH2O)-P1(R14 Et; 1R, 2R) (peptide)",–,HLE [2]: > 300 µM
Compound 249 (Table 2): Ac-Chg-Val-Pro((4I-Ph)O)-Acca (peptide),9.7,–
Compound 127 (Table 1): Ac-Asp-Asp-Ile-Val-Pip-Nva (peptide),–,IC50 [3]: 605 µM
"Compound 512 (Table 5): Ac-Chg-Val-Pro(1-NpCH2O)-P1(R14 (CH2)2Ph; 1R, 2?) (peptide)",19.5,–
Compound 232 (Table 2): AcOCH2-C(O)-Chg-Chg-Pro(1-NpCH2O)-Acca (peptide),1.4,–
Compound 238 (Table 2): Ac-Chg-Val-Pro((4Br-Ph)O)-Acca (peptide),27,HLE [2]: 195 µM
"Compound 601 (Table 6): P4 Chg, P3 Val, R13 OBn, R14 CH═CH2 (peptide)",3.61,–
"Compound 604 (Table 6): P4 Chg, P3 Val, R13 OBn, R14 CH═CHBr* (peptide)",2.55,–
"Compound 509 (Table 5): Ac-Asp-D-Glu-Chg-Chg-Pro(1-NpCH2O)-P1(R14 Et; 1R, 2R) (peptide)",0.015,HLE [2]: > 300 µM
Compound 214 (Table 2): Ac-Asp-D-Glu-Chg-Val-Pro(2-NpCH2O)-Nva (peptide),0.028,Other [4]: > 300 µM; Other [6]: > 300 µM; PPE [5]: > 300 µM; HLE [2]: > 300 µM
"Compound 505 (Table 5): Ac-Chg-Chg-Pro(1-NpCH2O)-P1(R14 Et; 1R, 2R) (peptide)",0.55,–
"Compound 518 (Table 5): Ac-Asp-D-Glu-Chg-Val-Pro(1-NpCH2O)-P1(R14 Et; 1R, 2R) (peptide)",0.011,HLE [2]: > 300 µM
